In assay [1] the target is T1, biotin-labeled human CD137 fused to human IgG1 Fc fragment (human, biotin-labeled).
T1 construct: also called human CD137-Fc; biotin-human CD137-Fc
Briefly: bead ELISA, IgG on biotin-human CD137-Fc; decrease with free CD3 epsilon 62.5 pmol against free Fc 62.5 pmol. (In general: In an ELISA, binding on a coated surface is turned into a signal by an enzyme label.)

The target of assay [2] is T1, biotin-labeled human CD137 fused to …. In words: bead ELISA, IgG on biotin-human CD137-Fc; control competitor: free human IgG1 Fc 62.5 pmol.
For assay [3] the target is unchanged. In words: bead ELISA, IgG on biotin-human CD137-Fc; competitor: free CD3 epsilon 62.5 pmol.
Assay [4] has as its target T2, CD3 epsilon homodimer protein (UniProt P07766 23-126).
T2 construct: also called CD3 (CD3 epsilon)
Briefly: SPR, Biacore T200, CD3 epsilon homodimer immobilized on CM4, one-arm antibody as analyte, 25 degrees C. In general terms: SPR reads the build-up and loss of mass on a sensor chip optically.

B1: dBBDu167/L094 (antibody, V domains shown)
VH: QVQLVESGGGLVQPGRSLRLSCAASGFTFSNAWMHWVRQAPGKGLEWVAQIKDKGNLYAAYYAPSVKGRFTISRDDSKNSIYLQMNSLKTEDTAVYYCHYVHYASAGGGLPGFGVDAWGQGTTVTVSS
VL: DIVMTQSPLSLPVTPGEPASISCYASEELLHINRHIYLHWYQQKPGQAPRLLIYKVYNRFNGVPDRFSGSGSGTDFTLKISRVEAEDVGVYYCAQGSSVPFTFGQGTKLEIK
notes: Purified IgG; Fab genes of the panning output converted into IgG format; also called dBBDu_167/dBBDu.L094
In assay [1], B1 displayed a Signal decrease of 96.9%. In assay [2], the “ELISA signal, Free Fc 62.5 pmol” value worked out at 141000. For the same molecule, in assay [3], the “ELISA signal, Free CD3e 62.5 pmol” value turned out to be 4370.

B2: L chain one-amino acid altered form of GLS3000, G to Y at Kabat position 89 (one-arm antibody: CE115HA000-pE22Hh / Kn010G3 / altered GLS3000-kappa) (antibody, human IgG1, kappa, L234A L235A, N297A, name in Kabat numbering)
heavy: QVQLVESGGGVVQPGRSLRLSCAASGFTFSNAWMHWVRQAPGKGLEWVAQIKAKSNNYATYYAESVKGRFTISRDDSKNSLYLQMNSLKTEDTAVYYCRYVHYGAYYGVDAWGQGTTVTVSSASTKGPSVFPLAPSSKSTSGGTAALGCLVKDYFPEPVTVSWNSGALTSGVHTFPAVLQSSGLYSLSSVVTVPSSSLGTQTYICNVNHKPSNTKVDKKVEPKSCDKTHTCPPCPAPEAAGGPSVFLFPPKPKDTLMISRTPEVTCVVVDVSHEDPEVKFNWYVDGVEVHNAKTKPREEQYASTYRVVSVLTVLHQDWLNGKEYKCKVSNKALPAPIEKTISKAKGQPREPQVYTLPPSRCELTKNQVSLSCAVKGFYPSDIAVEWESNGQPENNYKTTPPVLDSDGSFFLVSKLTVDKSRWQQGNVFSCSVMHEALHNHYTQKSLSLSPDYKDDDDK
chain: EPKSSDKTHTCPPCPAPELLGGPSVFLFPPKPKDTLMISRTPEVTCVVVDVSHEDPEVKFNWYVDGVEVHNAKTKPREEQYNSTYRVVSVLTVLHQDWLNGKEYKCKVSNKALPAPIEKTISKAKGQPREPQVCTLPPSRDELTKNQVSLWCLVKGFYPSDIAVEWESNGQPENNYKTTPPVLDSDGSFFLYSKLTVDKSRWQQGNVFSCSVMHEALHNRYTQKSLSLSP
light: DIVMTQSPLSLPVTPGEPASISCRSSQSLVHSNRNTYLHWYQQKPGQAPRLLIYKVSNRFSGVPDRFSGSGSGTDFTLKISRVEAEDVGVYYCYQGTQVPYTFGQGTKLEIKRTVAAPSVFIFPPSDEQLKSGTASVVCLLNNFYPREAKVQWKVDNALQSGNSQESVTEQDSKDSTYSLSSTLTLSKADYEKHKVYACEVTHQGLSSPVTKSFNRGEC
notes: One-arm antibody (IgG lacking one Fab); also called GLS3000 G89Y
With B2, the “ratio of amounts bound (Z = Y/X) against the unaltered GLS3000 antibody” value in assay [4] was found to be 1.19.

B3: L chain one-amino acid altered form of GLS3000, Q to Y at Kabat position 93 (one-arm antibody: CE115HA000-pE22Hh / Kn010G3 / altered GLS3000-kappa) (antibody, human IgG1, kappa, L234A L235A, N297A, name in Kabat numbering)
heavy: QVQLVESGGGVVQPGRSLRLSCAASGFTFSNAWMHWVRQAPGKGLEWVAQIKAKSNNYATYYAESVKGRFTISRDDSKNSLYLQMNSLKTEDTAVYYCRYVHYGAYYGVDAWGQGTTVTVSSASTKGPSVFPLAPSSKSTSGGTAALGCLVKDYFPEPVTVSWNSGALTSGVHTFPAVLQSSGLYSLSSVVTVPSSSLGTQTYICNVNHKPSNTKVDKKVEPKSCDKTHTCPPCPAPEAAGGPSVFLFPPKPKDTLMISRTPEVTCVVVDVSHEDPEVKFNWYVDGVEVHNAKTKPREEQYASTYRVVSVLTVLHQDWLNGKEYKCKVSNKALPAPIEKTISKAKGQPREPQVYTLPPSRCELTKNQVSLSCAVKGFYPSDIAVEWESNGQPENNYKTTPPVLDSDGSFFLVSKLTVDKSRWQQGNVFSCSVMHEALHNHYTQKSLSLSPDYKDDDDK
chain: EPKSSDKTHTCPPCPAPELLGGPSVFLFPPKPKDTLMISRTPEVTCVVVDVSHEDPEVKFNWYVDGVEVHNAKTKPREEQYNSTYRVVSVLTVLHQDWLNGKEYKCKVSNKALPAPIEKTISKAKGQPREPQVCTLPPSRDELTKNQVSLWCLVKGFYPSDIAVEWESNGQPENNYKTTPPVLDSDGSFFLYSKLTVDKSRWQQGNVFSCSVMHEALHNRYTQKSLSLSP
light: DIVMTQSPLSLPVTPGEPASISCRSSQSLVHSNRNTYLHWYQQKPGQAPRLLIYKVSNRFSGVPDRFSGSGSGTDFTLKISRVEAEDVGVYYCGQGTYVPYTFGQGTKLEIKRTVAAPSVFIFPPSDEQLKSGTASVVCLLNNFYPREAKVQWKVDNALQSGNSQESVTEQDSKDSTYSLSSTLTLSKADYEKHKVYACEVTHQGLSSPVTKSFNRGEC
notes: One-arm antibody (IgG lacking one Fab); also called GLS3000 Q93Y
B3: in assay [4], the “ratio of amounts bound (Z = Y/X) against the unaltered GLS3000 antibody” value was 0.87.

These data come from patent US20240270846A1 (published 2024).
